The data set deals with T1, SF3B2 peptide R508me0 (unmodified) (UniProt Q13435).
T1 chain: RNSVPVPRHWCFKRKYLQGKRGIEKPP
Put plainly: EMSA; R508me0; RNA 1 uM, peptide 1.4-140 uM; 20 mM Tris-HCl pH 8.0, 150 mM NaCl, 1.5 mM MgCl2, 0.5 mM EDTA, 100 U/mL RNasin, room temperature, 20 min; 6% native gel in 0.5x TBE. The following applies: label: 5' 6-FAM. For orientation: In EMSA bound probe runs differently from free probe, usually more slowly.

Consider CAUAGAAAAAAGUUAAGUUAA (ssRNA) [Stag2 upstream probe A (nonconsensus anchoring site)], for which the binding result is “binds”. The result for UAAUAGUCAUGCCUUGGUUCA (ssRNA) [Stag2 downstream probe B (consensus anchoring site)] reads “binds”.

For the origin of these results see PMC10984984, “Loss-of-function mutation in PRMT9 causes abnormal synapse development by dysregulation of RNA alternative splicing”.
